Consider three molecules from patent US20100204100A1, “BIOLOGICAL AGENTS ACTIVE IN CENTRAL NERVOUS SYSTEM” (THE JOHNS HOPKINS UNIVERISTY, priority 2007, published 2010).

Common to all, as to assay type: in vivo, mouse
Assay [1] concerns CFA-induced inflammatory pain behaviors. Put plainly: CFA-induced inflammatory pain behaviors, paw withdrawal threshold (von Frey filaments). Conditions: vs vehicle. The method, then: Intrathecal Injection of Tat Fusion Peptides. Intrathecal injection was performed in unanesthetized mice as previously described (Hylden and Wilcox, 1980; Tao, et al., 2003b; Tao, et al., 2004). In brief, the mouse was held firmly by the pelvic girdle in one hand, while a 10-μl Luer tip syringe with a 30 gauge 0.5-inch needle was held in the other hand at an angle of about 20° above the vertebral column. The needle was inserted into the tissue to one side of the L5 or L6 spinous process so that it slipped into the groove between the spinous and transverse processes. The needle was then moved carefully forward to the intervertebral space as the angle of the syringe was decreased to about 10°. […] The injection volume was 5 μl. The mice, assigned randomly to the experimental groups of 6-8, were given intrathecally Tat-PSD-95 PDZ2 or control peptide (mutated Tat-PSD-95 PDZ2 or PSD-95 PDZ2 without Tat PTD) 30 min before behavioral testing. Behavioral Analysis. Mechanical sensitivity of the mice was measured with von Frey filaments (Stoelting, Wood Dale, Ill.) as described previously (Yang and Gereau, 2003). Mice were placed in Plexiglas testing boxes with a 1×1 cm^2 wire-mesh grid floor and habituated for 3 h before experiments. Each von Frey filament was applied to the mouse hind paw in ascending order until it bent at approximately 30° for about 3 s. The smallest filament that evoked a paw withdrawal response was taken as the mechanical threshold (paw withdrawal threshold). Similar sites were selected for measuring mechanical thresholds in all tested animals, and the thresholds were measured at approximately the same site throughout the experiment for each individual animal. Two to three measurements were made before CFA or fusion peptides injection, and the average was calculated as the baseline. Established inflammatory pain behaviors were induced by intraplantar injection of CFA solution (20 μl, 1 mg/ml). To observe the effect of Tat-PSD-95 PDZ2 on the development of CFA-induced established inflammatory pain, the mice were given intraperitoneally Tat-PSD-95 PDZ2 or control peptide (mutated Tat-PSD-95 PDZ2 or PSD-95 PDZ2 without Tat) 2 h before CFA injection or intrathecally these peptides 1.5 h after CFA injection (development protocol); on the other hand, to observe the effect of Tat-PSD-95 PDZ2 on the maintenance of CFA-induced established inflammatory pain, the mice were given intraperitoneally these peptides 20 h after CFA injection or intrathecally these peptides 23.5 h after CFA injection (maintenance protocol). Behavioral measurements were conducted 2 h after CFA injection for the “development protocol” and 24 h after CFA injection for the “maintenance protocol”. The effect of Tat fusion peptide on CFA-induced established inflammatory pain behaviors was expressed as % of baseline.

Assay [2] relates to threshold for halothane anesthesia. The experiment in a line: Measurement of halothane MAC (tail clamp). Conditions: mice; for halothane MAC: mean±S.E.M., vehicle 1.12±0.05; for effect on halothane MAC: intraperitoneal injection, dose series. The method, then:
The purified fusion peptides at the indicated amounts were injected intraperitoneally into mice in 300 μl of phosphate-buffered saline and 10% glycerol. The mice were given Tat-PSD-95 PDZ2 or control peptide (mutated Tat-PSD-95 PDZ2 or PSD-95 PDZ2 without Tat) 4 h before MAC measurement and righting reflex testing. All the animals were assigned randomly to experimental groups consisting of 6-8 animals each. Western blot analysis was then used to verify the CNS delivery of these fusion peptides after intraperitoneal injection. Measurement of halothane MAC value was carried out as previously described with minor modification^20-22. Mice were placed in individual Plexiglas chambers 3 h after the injection of the fusion peptides. Each chamber was fitted with a rubber stopper at one end through which the mouse's tail and a rectal temperature probe protruded. Groups of four mice were given halothane in oxygen (4 l/min total gas flow). A gas sample was continuously drawn, and the anesthetic concentration was measured with an agent analyzer (Ohmeda 5250 RGM, Louisville, Colo.). A rectal temperature probe was inserted under light general anesthesia, and temperature was kept at 36˜38° C. with heat lamps throughout the experiment. Mice initially breathed approximately 1.5% halothane for 60 min. […] In each case, the tail was stimulated proximal to the previous test site. Only the middle third of the tail was used for tail-clamping. […] The anesthetic concentration was increased (or decreased) in steps of 0.1% until the positive response disappeared (or vice versa), with 10 min for equilibration allowed after each change of anesthetic concentration. MAC is defined as the concentration midway between the highest concentration that permitted movement in response to the stimulus and the lowest concentration that prevented movement.

The test system is the same in assay [3]. The experiment in a line: Determination of halothane RREC50 (righting reflex). Conditions: mice; for halothane RREC50: mean±S.E.M., vehicle 0.48±0.02; for effect on halothane RREC50: intraperitoneal injection, dose series. On the procedure:
The purified fusion peptides at the indicated amounts were injected intraperitoneally into mice in 300 μl of phosphate-buffered saline and 10% glycerol. The mice were given Tat-PSD-95 PDZ2 or control peptide (mutated Tat-PSD-95 PDZ2 or PSD-95 PDZ2 without Tat) 4 h before MAC measurement and righting reflex testing. All the animals were assigned randomly to experimental groups consisting of 6-8 animals each. Western blot analysis was then used to verify the CNS delivery of these fusion peptides after intraperitoneal injection. Following the measurement of MAC, the halothane concentration was halved for 10 min and the animal turned on its back to test the righting reflex defined as a return onto all four paws within 1 min^20-22. […] RREC50 was calculated for each mouse as the mean value of the anesthetic concentrations that just permitted and just prevented the righting reflex.

The mark [4] stands for this setting: intraperitoneal, Tat-PSD-95 PDZ2 2, 4, 8 mg/kg, control peptides 8 mg/kg, development and maintenance phases.
Where [5] appears, read: intrathecal, Tat-PSD-95 PDZ2 2.5, 5, 10 μg/5 μl, control peptides 10 μg/5 μl.

“Also recorded” adds a separate entry of the source.

B1: Tat-PSD-95 PDZ2: His-tagged fusion peptide: HIV Tat minimal transduction domain (residues 47-57) fused to the second PDZ domain of PSD-95 (protein)
chain: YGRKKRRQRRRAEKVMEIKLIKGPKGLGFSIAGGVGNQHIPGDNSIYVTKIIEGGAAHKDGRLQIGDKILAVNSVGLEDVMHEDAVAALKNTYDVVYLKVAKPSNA
In the case of B1, the “effect on CFA-induced decrease of paw withdrawal threshold, ipsilateral side” value (“effect on CFA-induced decrease” for short) in assay [1] (setting [4]) and in assay [1] (setting [5]) was “significantly inhibited; also recorded: dose-dependently inhibited” in each case. Besides, the entries for the “halothane MAC” value in assay [2] (2 mg/kg intraperitoneal), in assay [2] (4 mg/kg intraperitoneal) and in assay [2] (8 mg/kg intraperitoneal) were 1.11±0.05, 0.99±0.05 and 0.77±0.05, respectively. Further, the “effect on halothane MAC compared to the vehicle-treated group” value in assay [2] (8 mg/kg intraperitoneal) is on record as “significantly reduced”. Besides, in assay [2], the “effect on halothane MAC” value is recorded as “dose-dependently reduced”. Besides, the entries for the “halothane RREC50” value in assay [3] (2 mg/kg intraperitoneal), in assay [3] (4 mg/kg intraperitoneal) and in assay [3] (8 mg/kg intraperitoneal) were 0.45±0.03, 0.37±0.03 and 0.18±0.02, respectively. For the same molecule, in assay [3], the “effect on halothane RREC50” value was “dose-dependently reduced”. In assay [3] (two higher doses (4 and 8 mg/kg) intraperitoneal), the “effect on halothane RREC50 compared to vehicle-treated group” value (shortened to “effect … compared to vehicle-treated group”) is “significantly reduced”.

B2: mutated Tat-PSD-95 PDZ2: Control fusion peptide: Tat-PSD-95 PDZ2 with three sites critical for NMDAR/PSD-95 interaction mutated (K165T, L170R and H182L) (protein)
chain: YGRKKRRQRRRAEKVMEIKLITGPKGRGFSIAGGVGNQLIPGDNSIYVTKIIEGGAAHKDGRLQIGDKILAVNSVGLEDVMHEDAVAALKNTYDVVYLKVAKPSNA
With B2, the “effect on CFA-induced decrease” value in assay [1] (setting [4]) and in assay [1] (setting [5]) was “no effect” throughout. Moreover, the “effect on halothane MAC compared to the vehicle-treated group” value in assay [2] (8 mg/kg intraperitoneal) is recorded as “no effect”. In addition, the “effect on halothane MAC” value in assay [2] is given as “no effect”. For the same molecule, the “effect … compared to vehicle-treated group” value in assay [3] (8 mg/kg intraperitoneal) is recorded as “no effect”. Also, the “effect on halothane RREC50” value in assay [3] is “no effect”.

B3: PSD-95 PDZ2: Control peptide containing the same sequences as Tat-PSD-95 PDZ2 but without Tat PTD (protein)
chain: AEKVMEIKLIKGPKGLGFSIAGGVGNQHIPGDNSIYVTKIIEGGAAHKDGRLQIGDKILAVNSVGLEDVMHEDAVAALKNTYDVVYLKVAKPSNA
As for B3, the “effect on CFA-induced decrease” value in assay [1] (setting [4]) and in assay [1] (setting [5]) was “no effect” each time. The “effect on halothane MAC compared to the vehicle-treated group” value in assay [2] (8 mg/kg intraperitoneal) was “no effect”. Besides, the “effect on halothane MAC” value in assay [2] is reported as “no effect”. Besides, the “effect … compared to vehicle-treated group” value in assay [3] (8 mg/kg intraperitoneal) was “no effect”. Also, the “effect on halothane RREC50” value in assay [3] is reported as “no effect”.
